This test has as its target T1, Vps41-TAP (yeast), P38959.
T1 chain: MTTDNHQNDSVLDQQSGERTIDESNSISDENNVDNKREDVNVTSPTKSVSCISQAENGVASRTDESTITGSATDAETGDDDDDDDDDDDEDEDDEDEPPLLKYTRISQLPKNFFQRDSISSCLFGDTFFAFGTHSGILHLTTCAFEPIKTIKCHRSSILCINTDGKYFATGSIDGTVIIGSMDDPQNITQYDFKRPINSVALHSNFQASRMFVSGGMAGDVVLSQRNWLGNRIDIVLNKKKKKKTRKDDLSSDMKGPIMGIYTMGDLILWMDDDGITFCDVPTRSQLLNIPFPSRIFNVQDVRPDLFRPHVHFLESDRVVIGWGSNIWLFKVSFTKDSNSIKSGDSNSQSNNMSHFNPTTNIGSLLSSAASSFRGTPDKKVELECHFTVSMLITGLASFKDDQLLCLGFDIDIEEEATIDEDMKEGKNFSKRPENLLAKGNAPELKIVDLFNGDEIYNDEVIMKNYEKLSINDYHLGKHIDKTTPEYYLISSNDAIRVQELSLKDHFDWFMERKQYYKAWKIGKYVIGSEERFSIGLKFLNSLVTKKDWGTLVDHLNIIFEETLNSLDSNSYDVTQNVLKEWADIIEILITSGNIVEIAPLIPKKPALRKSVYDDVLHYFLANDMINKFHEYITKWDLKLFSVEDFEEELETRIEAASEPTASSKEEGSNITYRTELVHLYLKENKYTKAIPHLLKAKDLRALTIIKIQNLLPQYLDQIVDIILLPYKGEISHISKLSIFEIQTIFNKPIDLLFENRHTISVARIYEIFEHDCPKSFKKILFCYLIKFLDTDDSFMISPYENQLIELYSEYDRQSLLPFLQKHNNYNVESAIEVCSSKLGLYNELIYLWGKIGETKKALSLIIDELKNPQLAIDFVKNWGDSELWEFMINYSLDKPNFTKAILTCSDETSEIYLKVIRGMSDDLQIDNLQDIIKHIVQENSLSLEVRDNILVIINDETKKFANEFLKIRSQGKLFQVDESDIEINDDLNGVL
In words: co-IP. Conditions: remark: other sources report otherwise.

B1: Vps39, Q07468 1-1049 (natural protein)
chain: MLRAQKLHSLKSSDITAILPTEQSQKLVLAKKNGDVEVYSRDGNTLKLFQVYPDLLQNAKNDPLPPVIENFYFANELSTIFAQCKETLILLSTTNLHEYDRIIDRRGINHCWLFERSHKNKEEKNTYLIYSTINTAKMRVLIWEGRTYKNMMEASLSYRKETIRSIYPGETGITLATDLGIYHWPYNKPSLIRIEKTVKNKFPKDMISALTELKEQAEKVIEKKPKKNSHFDAQSFSSMDRMSRKSSMSSLWYRTIRNERGNKIRYTFELDGNDATPMIIDGATKKIFKVELMHNNEEPFLIATDHATFSESNSEFDHMQYLSSNLLMLYNSSTIKFVDYENGFTFLQQKIPEGIKWVKNLSGTYFLVWTSNDEVQLFSYHVDDGSEDDDQESICGDINDPDFYQLWRKVLFYKFFIDSPHSKELCVSDNPEESLDICAMKLRDLTVMWCLRIFDKFQNYMVQLERSRNSRMIRSKCEEMIIKSIFDLFIKFWAPPQLVILKVFPSAISSLVLEITGQEHHCLLKEAEEVKETYDIPPHLLNRWCLPYLTDTRRHLQNLLSKENDDESRITWCYRDREIKQSFDFFLISNHDDVDLNTMLTLIDTVLFKCYLYYNPPMVGPFIRVENHCDSHVIVTELKIRHMFKDLIDFYYKRGNHEEALKFLTDLVDELENDNTDQKQRQKIDHGVKILVIYYLKKLSNPQLDVIFTYTDWLLNRHNDSIKEILSSIFFYDSQACSSRDHLKVYGYIKKFDKLLAIQYLEFAISTFRLEGNKLHTVLIKLYLENLDIPSTRIKLKSLLETTSVYEPRTILKLLNDAIESGSDQLPTNQLNFVKYLKIFPLSKLENHKEAVHILLDEIDDYKAATSYCNDVYQSDSTKGEELLLYLYSKLVSIYDSNRNSKLILNFLQDHGSKLNSAEIYKNLPQDISLYDIGRVVSQLLKKHTSKMDETRLEKALLQVELVATTYKLNERMSSYGVLSDSHKCPICKKVISNFGTDSISWFTREGRNIITHYNCGKVLQERFNAKNEKSSRIKQKTLGEVINELNNK
For B1, the co-precipitation efficiency relative to that of Vps41-HA was determined as 2 fold.

The record behind these values is PMC3383723.
